Earlier results on two substances are cited in paper PMC4507496.

Where two headings read alike, the source gives them in different places. Some results are limits rather than exact numbers.

Data set [1] addresses ATG7 (Homo sapiens) (UniProt O95352). Particulars: cited from earlier work.
Data set [2] shares this target. Particulars: cited from earlier work. The source holds these as a separate data set.

Chain of ATG7 (Homo sapiens) (O95352 2-703): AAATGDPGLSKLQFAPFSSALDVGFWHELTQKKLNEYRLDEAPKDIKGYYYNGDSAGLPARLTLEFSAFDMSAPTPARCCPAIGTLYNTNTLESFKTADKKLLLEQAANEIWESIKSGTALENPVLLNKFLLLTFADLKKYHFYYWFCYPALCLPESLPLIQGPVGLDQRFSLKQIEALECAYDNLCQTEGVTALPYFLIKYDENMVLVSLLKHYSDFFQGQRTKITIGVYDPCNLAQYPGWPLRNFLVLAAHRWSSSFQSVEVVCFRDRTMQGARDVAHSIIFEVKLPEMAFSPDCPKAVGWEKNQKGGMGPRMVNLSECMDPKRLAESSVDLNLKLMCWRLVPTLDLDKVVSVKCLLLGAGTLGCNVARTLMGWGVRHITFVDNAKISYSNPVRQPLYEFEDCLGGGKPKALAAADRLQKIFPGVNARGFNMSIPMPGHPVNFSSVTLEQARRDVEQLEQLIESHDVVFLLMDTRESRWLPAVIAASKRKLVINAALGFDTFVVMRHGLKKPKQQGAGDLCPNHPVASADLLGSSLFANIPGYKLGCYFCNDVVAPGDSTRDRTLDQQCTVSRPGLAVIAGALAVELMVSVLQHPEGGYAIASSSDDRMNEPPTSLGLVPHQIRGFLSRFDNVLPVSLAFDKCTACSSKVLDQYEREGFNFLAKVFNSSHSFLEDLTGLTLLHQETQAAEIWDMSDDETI
Chain of ATG3 flexible region flexible region (Q9NT62 90-190): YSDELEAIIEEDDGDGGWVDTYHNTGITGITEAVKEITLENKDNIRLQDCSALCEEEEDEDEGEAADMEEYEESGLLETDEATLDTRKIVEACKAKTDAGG
Chain of ATG3 (Q9NT62 whole entry): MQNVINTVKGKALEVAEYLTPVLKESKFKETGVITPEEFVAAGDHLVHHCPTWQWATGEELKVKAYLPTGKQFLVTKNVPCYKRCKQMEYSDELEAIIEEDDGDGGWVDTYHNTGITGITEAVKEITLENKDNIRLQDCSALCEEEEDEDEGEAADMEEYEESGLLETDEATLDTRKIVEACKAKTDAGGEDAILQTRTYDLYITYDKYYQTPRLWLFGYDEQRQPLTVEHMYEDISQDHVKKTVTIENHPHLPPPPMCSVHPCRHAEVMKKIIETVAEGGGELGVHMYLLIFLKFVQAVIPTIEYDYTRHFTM

As for ATG3 (from UniProt Q9NT62), the Kd (usually the concentration at which binding is half-saturated) in the data set with ATG7 (Homo sapiens) [1] is 2200 nM. On to “ATG3 flexible region flexible region (from UniProt Q9NT62)”, for which, in the data set with ATG7 (Homo sapiens) [2], the Kd was greater than 70000 nM.
